Assays:
[1] = molecular target: the molecule itself; assay: SEC; Superdex 200 PC 3.2/20; purified Drp1 and Drp1 mutants
[2] = molecular target: the molecule itself; assay: non-reducing SDS-PAGE; purified MiD51^133-463 in the air; time course, dimer quantified every twenty-four hours; wild type and mutants compared

Protein	binding result [1]	binding result [2]	also measured
Drp1 (dynamin-related protein Drp1), wild type (natural protein, UniProt O00429-4 1-699, looked up, Drp1, GenBank NM_005690; also called wild-type Drp1; source: E. coli Rosseta (DE3), purified (Ni-NTA, anion exchange, size-exclusion chromatography)) MEALIPVINKLQDVFNTVGADIIQLPQIVVVGTQSSGKSSVLESLVGRDLLPRGTGIVTRRPLILQLVHVSQEDKRKTTGEENGVEAEEWGKFLHTKNKLYTDFDEIRQEIENETERISGNNKGVSPEPIHLKIFSPNVVNLTLVDLPGMTKVPVGDQPKDIELQIRELILRFISNPNSIILAVTAANTDMATSEALKISREVDPDGRRTLAVITKLDLMDAGTDAMDVLMGRVIPVKLGIIGVVNRSQLDINNKKSVTDSIRDEYAFLQKKYPSLANRNGTKYLARTLNRLLMHHIRDCLPELKTRINVLAAQYQSLLNSYGEPVDDKSATLLQLITKFATEYCNTIEGTAKYIETSELCGGARICYIFHETFGRTLESVDPLGGLNTIDILTAIRNATGPRPALFVPEVSFELLVKRQIKRLEEPSLRCVELVHEEMQRIIQHCSNYSTQELLRFPKLHDAIVEVVTCLLRKRLPVTNEMVHNLVAIELAYINTKHPDFADACGLMNNNIEEQRRNRLARELPSAVSRDKVASGGGGVGDGVQEPTTGNWRGMLKTSKAEELLAEEKSKPIPIMPASPQKGHAVNLLDVPVPVARKLSAREQRDCEVIERLIKSYFLIVRKNIQDSVPKAVMHFLVNHVKDTLQSELVGQLYKSSLLDDLLTESEDMAQRRKEAADMLKALQGASQIIAEIRETHLW	binds	–	–
Drp1 K38A (natural protein, UniProt O00429-4 1-699, looked up, Drp1, GenBank NM_005690; also called K38A mutant of Drp1; dominant-negative GTPase mutation K38A; source: E. coli Rosseta (DE3), purified (Ni-NTA, anion exchange, size-exclusion chromatography)) MEALIPVINKLQDVFNTVGADIIQLPQIVVVGTQSSGASSVLESLVGRDLLPRGTGIVTRRPLILQLVHVSQEDKRKTTGEENGVEAEEWGKFLHTKNKLYTDFDEIRQEIENETERISGNNKGVSPEPIHLKIFSPNVVNLTLVDLPGMTKVPVGDQPKDIELQIRELILRFISNPNSIILAVTAANTDMATSEALKISREVDPDGRRTLAVITKLDLMDAGTDAMDVLMGRVIPVKLGIIGVVNRSQLDINNKKSVTDSIRDEYAFLQKKYPSLANRNGTKYLARTLNRLLMHHIRDCLPELKTRINVLAAQYQSLLNSYGEPVDDKSATLLQLITKFATEYCNTIEGTAKYIETSELCGGARICYIFHETFGRTLESVDPLGGLNTIDILTAIRNATGPRPALFVPEVSFELLVKRQIKRLEEPSLRCVELVHEEMQRIIQHCSNYSTQELLRFPKLHDAIVEVVTCLLRKRLPVTNEMVHNLVAIELAYINTKHPDFADACGLMNNNIEEQRRNRLARELPSAVSRDKVASGGGGVGDGVQEPTTGNWRGMLKTSKAEELLAEEKSKPIPIMPASPQKGHAVNLLDVPVPVARKLSAREQRDCEVIERLIKSYFLIVRKNIQDSVPKAVMHFLVNHVKDTLQSELVGQLYKSSLLDDLLTESEDMAQRRKEAADMLKALQGASQIIAEIRETHLW	binds	–	–
Drp1 S600D (natural protein, UniProt O00429-4 1-699, looked up, Drp1, GenBank NM_005690; S600 is S637 in Drp1 isoform 1 (printed); also called phosphorylation site mutant (related to S637 in Drp1 isoform 1); source: E. coli Rosseta (DE3), purified (Ni-NTA, anion exchange, size-exclusion chromatography)) MEALIPVINKLQDVFNTVGADIIQLPQIVVVGTQSSGKSSVLESLVGRDLLPRGTGIVTRRPLILQLVHVSQEDKRKTTGEENGVEAEEWGKFLHTKNKLYTDFDEIRQEIENETERISGNNKGVSPEPIHLKIFSPNVVNLTLVDLPGMTKVPVGDQPKDIELQIRELILRFISNPNSIILAVTAANTDMATSEALKISREVDPDGRRTLAVITKLDLMDAGTDAMDVLMGRVIPVKLGIIGVVNRSQLDINNKKSVTDSIRDEYAFLQKKYPSLANRNGTKYLARTLNRLLMHHIRDCLPELKTRINVLAAQYQSLLNSYGEPVDDKSATLLQLITKFATEYCNTIEGTAKYIETSELCGGARICYIFHETFGRTLESVDPLGGLNTIDILTAIRNATGPRPALFVPEVSFELLVKRQIKRLEEPSLRCVELVHEEMQRIIQHCSNYSTQELLRFPKLHDAIVEVVTCLLRKRLPVTNEMVHNLVAIELAYINTKHPDFADACGLMNNNIEEQRRNRLARELPSAVSRDKVASGGGGVGDGVQEPTTGNWRGMLKTSKAEELLAEEKSKPIPIMPASPQKGHAVNLLDVPVPVARKLDAREQRDCEVIERLIKSYFLIVRKNIQDSVPKAVMHFLVNHVKDTLQSELVGQLYKSSLLDDLLTESEDMAQRRKEAADMLKALQGASQIIAEIRETHLW	binds	–	–
Drp1 S579D (natural protein, UniProt O00429-4 1-699, looked up, Drp1, GenBank NM_005690; S579 is S616 in Drp1 isoform 1 (printed); also called phosphorylation site mutant (related to S616 in Drp1 isoform 1); source: E. coli Rosseta (DE3), purified (Ni-NTA, anion exchange, size-exclusion chromatography)) MEALIPVINKLQDVFNTVGADIIQLPQIVVVGTQSSGKSSVLESLVGRDLLPRGTGIVTRRPLILQLVHVSQEDKRKTTGEENGVEAEEWGKFLHTKNKLYTDFDEIRQEIENETERISGNNKGVSPEPIHLKIFSPNVVNLTLVDLPGMTKVPVGDQPKDIELQIRELILRFISNPNSIILAVTAANTDMATSEALKISREVDPDGRRTLAVITKLDLMDAGTDAMDVLMGRVIPVKLGIIGVVNRSQLDINNKKSVTDSIRDEYAFLQKKYPSLANRNGTKYLARTLNRLLMHHIRDCLPELKTRINVLAAQYQSLLNSYGEPVDDKSATLLQLITKFATEYCNTIEGTAKYIETSELCGGARICYIFHETFGRTLESVDPLGGLNTIDILTAIRNATGPRPALFVPEVSFELLVKRQIKRLEEPSLRCVELVHEEMQRIIQHCSNYSTQELLRFPKLHDAIVEVVTCLLRKRLPVTNEMVHNLVAIELAYINTKHPDFADACGLMNNNIEEQRRNRLARELPSAVSRDKVASGGGGVGDGVQEPTTGNWRGMLKTSKAEELLAEEKSKPIPIMPADPQKGHAVNLLDVPVPVARKLSAREQRDCEVIERLIKSYFLIVRKNIQDSVPKAVMHFLVNHVKDTLQSELVGQLYKSSLLDDLLTESEDMAQRRKEAADMLKALQGASQIIAEIRETHLW	binds	–	–
MiD51^133-463, wild type (protein of the dimerization assays) (domain or fragment, human, UniProt Q9NQG6-1 133-463, looked up, the His tag is called N-terminal in the methods and C-terminal in the results; source: E. coli BL21 (DE3), purified) MSLQEKLLTYYRNRAAIPAGEQARAKQAAVDICAELRSFLRAKLPDMPLRDMYLSGSLYDDLQVVTADHIQLIVPLVLEQNLWSCIPGEDTIMNVPGFFLVRRENPEYFPRGSSYWDRCVVGGYLSPKTVADTFEKVVAGSINWPAIGSLLDYVIRPAPPPEALTLEVQYERDKHLFIDFLPSVTLGDTVLVAKPHRLAQYDNLWRLSLRPAETARLRALDQADSGCRSLCLKILKAICKSTPALGHLTASQLTNVILHLAQEEADWSPDMLADRFLQALRGLISYLEAGVLPSALNPKVNLFAELTPEEIDELGYTLYCSLSEPEVLLQT	–	–	stoichiometry N [2]: 2
MiD51^133-463 C165S (domain or fragment, human, UniProt Q9NQG6-1 133-463, looked up, source: E. coli BL21 (DE3), purified) MSLQEKLLTYYRNRAAIPAGEQARAKQAAVDISAELRSFLRAKLPDMPLRDMYLSGSLYDDLQVVTADHIQLIVPLVLEQNLWSCIPGEDTIMNVPGFFLVRRENPEYFPRGSSYWDRCVVGGYLSPKTVADTFEKVVAGSINWPAIGSLLDYVIRPAPPPEALTLEVQYERDKHLFIDFLPSVTLGDTVLVAKPHRLAQYDNLWRLSLRPAETARLRALDQADSGCRSLCLKILKAICKSTPALGHLTASQLTNVILHLAQEEADWSPDMLADRFLQALRGLISYLEAGVLPSALNPKVNLFAELTPEEIDELGYTLYCSLSEPEVLLQT	–	binds	–
MiD51^133-463 supposed dimer surface mutant (SDM, R169A/R182A/D183A/Q212A/N213A) (domain or fragment, human, UniProt Q9NQG6-1 133-463, looked up, source: E. coli BL21 (DE3), purified) MSLQEKLLTYYRNRAAIPAGEQARAKQAAVDICAELASFLRAKLPDMPLAAMYLSGSLYDDLQVVTADHIQLIVPLVLEAALWSCIPGEDTIMNVPGFFLVRRENPEYFPRGSSYWDRCVVGGYLSPKTVADTFEKVVAGSINWPAIGSLLDYVIRPAPPPEALTLEVQYERDKHLFIDFLPSVTLGDTVLVAKPHRLAQYDNLWRLSLRPAETARLRALDQADSGCRSLCLKILKAICKSTPALGHLTASQLTNVILHLAQEEADWSPDMLADRFLQALRGLISYLEAGVLPSALNPKVNLFAELTPEEIDELGYTLYCSLSEPEVLLQT	–	binds	–
MiD51^133-463 nucleotide binding site mutant (NBM, H201D/R342E/K368E) (domain or fragment, human, UniProt Q9NQG6-1 133-463, looked up, source: E. coli BL21 (DE3), purified) MSLQEKLLTYYRNRAAIPAGEQARAKQAAVDICAELRSFLRAKLPDMPLRDMYLSGSLYDDLQVVTADDIQLIVPLVLEQNLWSCIPGEDTIMNVPGFFLVRRENPEYFPRGSSYWDRCVVGGYLSPKTVADTFEKVVAGSINWPAIGSLLDYVIRPAPPPEALTLEVQYERDKHLFIDFLPSVTLGDTVLVAKPHRLAQYDNLWRLSLEPAETARLRALDQADSGCRSLCLKILEAICKSTPALGHLTASQLTNVILHLAQEEADWSPDMLADRFLQALRGLISYLEAGVLPSALNPKVNLFAELTPEEIDELGYTLYCSLSEPEVLLQT	–	binds	–
